Experiments:
HLA-A*01:01 = experiment: IEDB peptide-MHC binding, purified MHC/direct/fluorescence; filed as Kd, often an IC50 or EC50 that approximates it; ≥ and ≤ were set here for values at or beyond the usual limits of such assays; details: source organism: Yersinia pestis
HLA-A*02:01 = experiment: as above; details: source organism: Yersinia pestis
HLA-A*03:01 = experiment: as above; details: source organism: Yersinia pestis
HLA-A*11:01 = experiment: as above; details: source organism: Yersinia pestis
HLA-A*69:01 = experiment: as above; details: source organism: Yersinia pestis
HLA-B*07:02 = experiment: as above; details: source organism: Yersinia pestis
HLA-B*08:01 = experiment: as above; details: source organism: Yersinia pestis CA88-4125
HLA-B*15:01 = experiment: as above; details: source organism: Yersinia pestis
HLA-B*15:09 = experiment: as above; details: source organism: Yersinia pestis CA88-4125
HLA-B*15:17 = experiment: as above; details: source organism: Yersinia pestis
HLA-B*18:01 = experiment: as above; details: source organism: Yersinia pestis
HLA-B*27:05 = experiment: as above; details: source organism: Yersinia pestis
HLA-B*38:01 = experiment: as above; details: source organism: Yersinia pestis CA88-4125
HLA-B*39:01 = experiment: as above; details: source organism: Yersinia pestis CA88-4125
HLA-B*40:01 = experiment: as above; details: source organism: Yersinia pestis
HLA-B*46:01 = experiment: as above; details: source organism: Yersinia pestis
HLA-B*48:01 = experiment: as above
HLA-B*51:01 = experiment: as above; details: source organism: Yersinia pestis
HLA-B*57:01 = experiment: as above; details: source organism: Yersinia pestis
HLA-B*58:01 = experiment: as above; details: source organism: Yersinia pestis CA88-4125
HLA-A*31:01 = experiment: IEDB peptide-MHC binding, purified MHC/competitive/fluorescence; filed as Kd, often an IC50 or EC50 that approximates it; ≥ and ≤ were set here for values at or beyond the usual limits of such assays; details: source organism: Yersinia pestis KIM10+
HLA-B*73:01 = experiment: as above; details: source organism: Burkholderia mallei SAVP1
HLA-C*07:02 = experiment: IEDB peptide-MHC binding, purified MHC/direct/fluorescence; filed as Kd, often an IC50 or EC50 that approximates it; ≥ and ≤ were set here for values at or beyond the usual limits of such assays; details: source organism: Yellow fever virus
HLA-B*15:42 = experiment: IEDB peptide-MHC binding, purified MHC/competitive/fluorescence; filed as Kd, often an IC50 or EC50 that approximates it; ≥ and ≤ were set here for values at or beyond the usual limits of such assays; details: source organism: Yellow fever virus
HLA-B*27:20 = experiment: as above; details: source organism: Yellow fever virus
HLA-B*45:06 = experiment: as above; details: source organism: Yellow fever virus
HLA-B*83:01 = experiment: as above; details: source organism: Yellow fever virus
HLA-C*06:02 = experiment: as above; details: source organism: Yellow fever virus
HLA-B*35:01 = experiment: IEDB peptide-MHC binding, purified MHC/competitive/radioactivity; ≥ and ≤ were set here for values at or beyond the usual limits of such assays; details: source organism: Human papillomavirus 16
HLA-B*40:02 = experiment: IEDB peptide-MHC binding, cellular MHC/competitive/fluorescence; ≥ and ≤ were set here for values at or beyond the usual limits of such assays; details: source organism: Homo sapiens

For RPQLWRYRW, the Kd (HLA-A*01:01) was at least 20000 nM, the Kd (HLA-A*02:01) was at least 20000 nM and the Kd (HLA-A*03:01) was at least 20000 nM. The Kd (HLA-A*11:01) was at least 20000 nM, the Kd (HLA-A*69:01) was at least 20000 nM and the Kd (HLA-B*07:02) was 970 nM. The Kd (HLA-B*08:01) was at least 20000 nM, the Kd (HLA-B*15:01) was at least 20000 nM and the Kd (HLA-B*15:09) was at least 20000 nM. The Kd (HLA-B*15:17) was at least 20000 nM, the Kd (HLA-B*18:01) was at least 20000 nM and the Kd (HLA-B*27:05) was at least 20000 nM. It also gave a Kd (HLA-B*38:01) of at least 20000 nM, a Kd (HLA-B*39:01) of 3180 nM and a Kd (HLA-B*40:01) of at least 20000 nM. The Kd (HLA-B*46:01) was at least 20000 nM, the Kd (HLA-B*48:01; source organism: Yersinia pestis) was at least 20000 nM and the Kd (HLA-B*51:01) was at least 20000 nM. The Kd (HLA-B*57:01) was 343 nM, the Kd (HLA-B*58:01) was 328 nM and the Kd (HLA-A*31:01) was 1810 nM.

RRFWVGYQQ showed a Kd (HLA-B*73:01) of 893 nM.

For RRRLRTLVL, the Kd (HLA-B*48:01; source organism: Yellow fever virus 17D) was 2930 nM, the Kd (HLA-C*07:02) was 225 nM and the Kd (HLA-B*15:42) was at least 5000 nM. The Kd (HLA-B*27:20) was 0.2 nM, the Kd (HLA-B*45:06) was at least 5000 nM and the Kd (HLA-B*83:01) was at least 5000 nM. It also gave a Kd (HLA-C*06:02) of 50.5 nM.

SAFRCFIVY was tested, and the IC50 (HLA-B*35:01) was 1.4 nM.

For SELSPGRSV, the IC50 (HLA-B*40:02) was 1100 nM.
